Ends that are not written are not given here.
Target: T1, calmodulin (CaM), human, wild type (human, UniProt P0DP23 1-149)
T1 construct: human calmodulin, subcloned from HEK293 cells; Vector pGEX-6P-1; also called wt CaM; apoCaM; source: E. coli BL21 (DE3), GST fusion purified on Glutathione Sepharose 4B; GST cleaved with PreScission Protease
Assay: pull-down; GST-fusion mutated IQ (T1909A, S1918A, T1934A), treated with CaMKII and CIP, incubated with a fixed concentration of CaM (1.4 uM); [Ca2+] ≈ free; Coomassie stain
Settings: both partners purified

B1: GST-fusion NaV1.1 IQ domain, potential CaMKII phosphorylation sites mutant (T1909A + S1918A + T1934A) (domain or fragment)
chain: ALKRKQEEVAAVIIQRAYRRHLLKRAVK
modifications: not fully specified (N-terminus); also: GST fusion protein
notes: IQ domain of human NaV1.1, amino acids 1909-1936, with T1909A, S1918A and T1934A; the treated samples are kept as one molecule; also called mutated NaV1.1 IQ; source: E. coli BL21 (DE3), GST fusion purified on Glutathione Sepharose 4B beads
- binding result: binds

Reference: article PMC6165294, “The Effect of Ca^2+, Lobe-Specificity, and CaMKII on CaM Binding to NaV1.1” (International Journal of Molecular Sciences, 2018)
